The text below walks through data of IntAct's records for PubMed 12606577.

The target of one experiment is pak1_human PAK1 (UniProt Q13153).
The next experiment addresses par6b_mouse Pard6b (UniProt Q9JK83).

Chain of par6b_mouse Pard6b (Q9JK83 whole entry): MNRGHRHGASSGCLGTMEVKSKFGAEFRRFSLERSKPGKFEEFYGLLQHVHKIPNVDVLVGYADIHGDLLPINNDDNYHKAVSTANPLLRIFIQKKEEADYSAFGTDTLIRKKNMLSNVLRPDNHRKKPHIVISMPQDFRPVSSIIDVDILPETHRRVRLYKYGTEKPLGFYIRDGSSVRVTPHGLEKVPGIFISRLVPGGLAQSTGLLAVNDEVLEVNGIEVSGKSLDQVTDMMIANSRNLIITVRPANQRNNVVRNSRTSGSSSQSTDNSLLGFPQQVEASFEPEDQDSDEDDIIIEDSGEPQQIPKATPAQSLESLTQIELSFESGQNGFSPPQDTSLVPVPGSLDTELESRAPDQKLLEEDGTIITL
Chain of pak1_human PAK1 (Q13153 whole entry): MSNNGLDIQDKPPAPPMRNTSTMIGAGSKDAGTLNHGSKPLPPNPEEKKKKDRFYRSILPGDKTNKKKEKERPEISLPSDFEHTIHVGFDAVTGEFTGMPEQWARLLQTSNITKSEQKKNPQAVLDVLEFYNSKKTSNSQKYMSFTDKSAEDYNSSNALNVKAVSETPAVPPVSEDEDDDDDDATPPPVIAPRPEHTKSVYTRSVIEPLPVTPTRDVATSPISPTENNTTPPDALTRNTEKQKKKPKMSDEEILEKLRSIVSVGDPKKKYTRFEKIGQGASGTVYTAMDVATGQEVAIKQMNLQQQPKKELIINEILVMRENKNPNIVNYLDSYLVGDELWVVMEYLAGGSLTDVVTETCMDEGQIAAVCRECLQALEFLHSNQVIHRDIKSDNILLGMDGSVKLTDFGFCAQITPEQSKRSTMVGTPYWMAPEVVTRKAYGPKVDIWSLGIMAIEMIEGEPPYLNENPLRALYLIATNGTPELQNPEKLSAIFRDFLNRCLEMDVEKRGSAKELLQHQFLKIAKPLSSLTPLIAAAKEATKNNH
Chain of Cell division control protein 42 homolog (Homo sapiens), P60953 Y40K (P60953 whole entry Y40K): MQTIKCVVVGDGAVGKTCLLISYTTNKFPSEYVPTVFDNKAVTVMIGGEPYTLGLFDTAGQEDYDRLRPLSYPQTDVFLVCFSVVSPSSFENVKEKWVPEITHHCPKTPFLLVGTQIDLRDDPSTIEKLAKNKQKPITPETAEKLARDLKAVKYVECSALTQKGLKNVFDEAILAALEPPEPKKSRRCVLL
Chain of Cell division control protein 42 homolog (Homo sapiens), P60953 D38A (P60953 whole entry D38A): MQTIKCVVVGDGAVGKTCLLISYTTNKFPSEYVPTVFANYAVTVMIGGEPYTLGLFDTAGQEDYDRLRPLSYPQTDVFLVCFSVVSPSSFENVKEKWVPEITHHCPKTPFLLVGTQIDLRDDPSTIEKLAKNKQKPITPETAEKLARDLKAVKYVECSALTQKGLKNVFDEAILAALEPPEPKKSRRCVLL
Chain of Cell division control protein 42 homolog (Homo sapiens), P60953 F37A (P60953 whole entry F37A): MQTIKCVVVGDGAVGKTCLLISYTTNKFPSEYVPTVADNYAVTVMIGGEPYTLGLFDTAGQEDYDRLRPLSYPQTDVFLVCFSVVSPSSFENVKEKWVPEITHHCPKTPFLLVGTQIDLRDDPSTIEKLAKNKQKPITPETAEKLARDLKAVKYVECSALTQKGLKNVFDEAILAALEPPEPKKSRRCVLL

As to “Cell division control protein 42 homolog (Homo sapiens), P60953 D38A”, the “effect of a mutation on the interaction” value with pak1_human PAK1 and with par6b_mouse Pard6b was “decreasing interaction” throughout. For the substance “Cell division control protein 42 homolog (Homo sapiens), P60953 F37A”, the “effect of a mutation on the interaction” value in the experiment with par6b_mouse Pard6b is “decreasing interaction”. Take “Cell division control protein 42 homolog (Homo sapiens), P60953 Y40K”: the “effect of a mutation on the interaction” value in the experiment with pak1_human PAK1 and with par6b_mouse Pard6b was “decreasing interaction” in each case.
